Experimental findings from PMC12658102 (2025) are described below.

In general, Kd refers to the concentration at which binding is half-saturated. A low value points to a tighter complex. What is called stoichiometry N is the number of molecules, sites or subunits per partner or assembly.

The target in one data set is TDP-43 CTD M323A. Description: NMR chemical shift perturbation (15N CSP) as a function of protein concentration. To be noted: pH 6.1, without salt; 90 μM vs 20 μM protein; read off a plot.
Another data set deals with TDP-43 CTD S342A. The description is as above. Particulars: pH 6.1, without salt; 90 μM vs 20 μM protein; read off a plot.
Data set [1] deals with TDP-43 CTD S→E S317C cross-linked (human) (UniProt Q13148). Description: AUC; dimer-tetramer, global Lamm equation modeling. Particulars: domain or fragment.
The target is the same in data set [2]. Description: AUC; dimer-tetramer, isotherm fit (dimer concentration units). Particulars: domain or fragment.
The target of the next data set is TDP-43 CTD Q343A. Description: NMR chemical shift perturbation (15N CSP) as a function of protein concentration. Particulars: pH 6.1, without salt; 90 μM vs 20 μM protein; read off a plot.
The next data set has as its target TDP-43 CTD F316A. The data set is described as above. Particulars: pH 6.1, without salt; 90 μM vs 20 μM protein; read off a plot.
A further data set addresses TDP-43 CTD S317A. Described as above. To be noted: pH 6.1, without salt; 90 μM vs 20 μM protein; read off a plot.
The target in data set [3] is TDP-43 CTD S→E S305C cross-linked (human) (UniProt Q13148). Description: AUC; dimer-tetramer. Particulars: domain or fragment.
The target is the same in data set [4]. Description: AUC; tetramer-octamer. Particulars: domain or fragment.
For another data set, the target named is TDP-43 CTD M339A. Description: NMR chemical shift perturbation (15N CSP) as a function of protein concentration. Particulars: pH 6.1, without salt; 90 μM vs 20 μM protein; read off a plot.
In data set [5] the target is TDP-43 C-terminal domain, wild type (human). Description: AUC; sedimentation velocity, 25 °C, 50,000 rpm, absorbance at 280 nm, solution without salt; WT CTD at 33, 58 and 107 µM; c(s) analysis and global Lamm equation modelling of the 58 and 107 µM data (SEDPHAT), monomer-dimer-tetramer model (steps: dimer to monomers; tetramer to dimers); monomer-tetramer model fits similarly.

A further data set addresses TDP-43 CTD L330A. Description: NMR chemical shift perturbation (15N CSP) as a function of protein concentration. Particulars: pH 6.1, without salt; 90 μM vs 20 μM protein; read off a plot.
Data set [6] deals with the molecule itself. Description: analytical ultracentrifugation (SEDPHAT).

Turning to “TDP-43 C-terminal domain, wild type M323A”, the ratio to parent with TDP-43 CTD M323A was found to be 0.19.

Turning to “TDP-43 C-terminal domain, wild type S342A”, the ratio to parent with TDP-43 CTD S342A turned out to be 1.1.

“TDP-43 CTD S→E S317C cross-linked (from UniProt Q13148)”: the Kd in data set [1] was found to be 46 µM; in data set [2], 45 µM.

As for “TDP-43 C-terminal domain, wild type Q343A”, in the data set with TDP-43 CTD Q343A, the ratio to parent turned out to be 1.2.

For the molecule “TDP-43 C-terminal domain, wild type F316A”, the ratio to parent in the data set with TDP-43 CTD F316A came to 0.27.

Regarding “TDP-43 C-terminal domain, wild type S317A”, in the data set with TDP-43 CTD S317A, the ratio to parent was 1.2.

For the molecule “TDP-43 CTD S→E S305C cross-linked (from UniProt Q13148)”, the Kd in data set [3] turned out to be 58 µM; in [4], 4.7 µM.

“TDP-43 C-terminal domain, wild type M339A”: the ratio to parent in the data set with TDP-43 CTD M339A worked out at 0.63.

Turning to “TDP-43 C-terminal domain, wild type (domain or fragment)”, in data set [5], the Kd,dim-tet (dimer-tetramer step) worked out at 2.7 µM; the Kd,mon-dim (monomer-dimer step) is 2400 µM; the ceq (concentration for equal population of monomer and tetramer) was in the range of 250 to 300 µM; the stoichiometry N amounted to 4.

Regarding “TDP-43 C-terminal domain, wild type L330A”, the ratio to parent with TDP-43 CTD L330A turned out to be 0.13.

As to NPAMMAAAQAALQSSWGMMGMLA [TDP-43 dimer CTD conserved region], the Kd in data set [6] was determined as 2.7 µM.

Regarding NPAMMAAAQAALQSSWGMMGMLA [TDP-43 CTD conserved region], in data set [6], binding was put at a Kd of 2400 µM.
